Results reported in US20240058465A1 (SUTRO BIOPHARMA, published 2024).

Target: human ROR1 (hROR1) (human, UniProt Q01973 30-937)
Assay: cell-based or functional assay

| Binder | cell killing on ROR1 positive NTERA-2 cells, EC50 | cell killing on ROR1 positive NTERA-2 cells, Span |
| --- | --- | --- |
| Conjugate 5 (2188-D04-F404-LP8) (antibody, human IgG1, kappa, pAMF at HC-F404 (the * of the entry), conjugated to LP8 (DBCO-GGG-EDA PNU)) heavy: MEVQLVESGGGLVQPGGSLRLSCAASGFNISDYDIHWVRQAPGKGLEWVGGIDPADGSTDYADSVKGRFTISADTSKNTAYLQMNSLRAEDTAVYYCARDYGVYDYWGQGTLVTVSSASTKGPSVFPLAPSSKSTSGGTAALGCLVKDYFPEPVTVSWNSGALTSGVHTFPAVLQSSGLYSLSSVVTVPSSSLGTQTYICNVNHKPSNTKVDKKVEPKSCDKTHTCPPCPAPELLGGPSVFLFPPKPKDTLMISRTPEVTCVVVDVSHEDPEVKFNWYVDGVEVHNAKTKPREEQYNSTYRVVSVLTVLHQDWLNGKEYKCKVSNKALPAPIEKTISKAKGQPREPQVYTLPPSREEMTKNQVSLTCLVKGFYPSDIAVEWESNGQPENNYKTTPPVLDSDGSFLYSKLTVDKSRWQQGNVFSCSVMHEALHNHYTQKSLSLSPGK light: not shown | 10.1 pM | 83% |
| Conjugate 1 (2188-D04-Y180/F404-LP1) (antibody, human IgG1, kappa, pAMF at HC-Y180 and HC-F404 (the * of the entry), conjugated to LP1 (DBCO-Valcit-pAB-hemiasterlin)) heavy: MEVQLVESGGGLVQPGGSLRLSCAASGFNISDYDIHWVRQAPGKGLEWVGGIDPADGSTDYADSVKGRFTISADTSKNTAYLQMNSLRAEDTAVYYCARDYGVYDYWGQGTLVTVSSASTKGPSVFPLAPSSKSTSGGTAALGCLVKDYFPEPVTVSWNSGALTSGVHTFPAVLQSSGLSLSSVVTVPSSSLGTQTYICNVNHKPSNTKVDKKVEPKSCDKTHTCPPCPAPELLGGPSVFLFPPKPKDTLMISRTPEVTCVVVDVSHEDPEVKFNWYVDGVEVHNAKTKPREEQYNSTYRVVSVLTVLHQDWLNGKEYKCKVSNKALPAPIEKTISKAKGQPREPQVYTLPPSREEMTKNQVSLTCLVKGFYPSDIAVEWESNGQPENNYKTTPPVLDSDGSFLYSKLTVDKSRWQQGNVFSCSVMHEALHNHYTQKSLSLSPGK light: not shown | > 10000 pM | < 20% |
| Conjugate 4 (2188-D04-Y180/F404/K42/E161-LP1) (antibody, human IgG1, kappa, pAMF in place of LC-K42 and LC-E161 (Kabat numbering), conjugated to LP1; pAMF at HC-Y180 and HC-F404 (the * of the entry), conjugated to LP1) heavy: MEVQLVESGGGLVQPGGSLRLSCAASGFNISDYDIHWVRQAPGKGLEWVGGIDPADGSTDYADSVKGRFTISADTSKNTAYLQMNSLRAEDTAVYYCARDYGVYDYWGQGTLVTVSSASTKGPSVFPLAPSSKSTSGGTAALGCLVKDYFPEPVTVSWNSGALTSGVHTFPAVLQSSGLSLSSVVTVPSSSLGTQTYICNVNHKPSNTKVDKKVEPKSCDKTHTCPPCPAPELLGGPSVFLFPPKPKDTLMISRTPEVTCVVVDVSHEDPEVKFNWYVDGVEVHNAKTKPREEQYNSTYRVVSVLTVLHQDWLNGKEYKCKVSNKALPAPIEKTISKAKGQPREPQVYTLPPSREEMTKNQVSLTCLVKGFYPSDIAVEWESNGQPENNYKTTPPVLDSDGSFLYSKLTVDKSRWQQGNVFSCSVMHEALHNHYTQKSLSLSPGK light: not shown | 22 pM | 63% |
| Conjugate 2 (2188-D04-Y180/F404/K42-LP1) (antibody, human IgG1, kappa, pAMF at LC-K42 (the * of the entry), conjugated to LP1; pAMF at HC-Y180 and HC-F404 (the * of the entry), conjugated to LP1) heavy: MEVQLVESGGGLVQPGGSLRLSCAASGFNISDYDIHWVRQAPGKGLEWVGGIDPADGSTDYADSVKGRFTISADTSKNTAYLQMNSLRAEDTAVYYCARDYGVYDYWGQGTLVTVSSASTKGPSVFPLAPSSKSTSGGTAALGCLVKDYFPEPVTVSWNSGALTSGVHTFPAVLQSSGLSLSSVVTVPSSSLGTQTYICNVNHKPSNTKVDKKVEPKSCDKTHTCPPCPAPELLGGPSVFLFPPKPKDTLMISRTPEVTCVVVDVSHEDPEVKFNWYVDGVEVHNAKTKPREEQYNSTYRVVSVLTVLHQDWLNGKEYKCKVSNKALPAPIEKTISKAKGQPREPQVYTLPPSREEMTKNQVSLTCLVKGFYPSDIAVEWESNGQPENNYKTTPPVLDSDGSFLYSKLTVDKSRWQQGNVFSCSVMHEALHNHYTQKSLSLSPGK light: MDIQMTQSPSSLSASVGDRVTITCRASQDVNTAVAWYQQKPGAPKLLIYSASFLYSGVPSRFSGSRSGTDFTLTISSLQPEDFATYYCQQHYTTPPTFGQGTKVEIKRTVAAPSVFIFPPSDEQLKSGTASVVCLLNNFYPREAKVQWKVDNALQSGNSQESVTEQDSKDSTYSLSSTLTLSKADYEKHKVYACEVTHQGLSSPVTKSFNRGEC | 82 pM | 49% |

Target: T1, receptor tyrosine kinase orphan receptor 1 (ROR1) on Ntera-2 cells (human, UniProt Q01973 30-937)
Assay: cell-based or functional assay

| Binder | cell killing EC50, NTERA-2 cells | cell killing Span, NTERA-2 cells |
| --- | --- | --- |
| Conjugate 5 (D04-F404-LP8) (antibody, human IgG1, kappa, pAMF at F404 (EU), linked to LP8) heavy: MEVQLVESGGGLVQPGGSLRLSCAASGFNISDYDIHWVRQAPGKGLEWVGGIDPADGSTDYADSVKGRFTISADTSKNTAYLQMNSLRAEDTAVYYCARDYGVYDYWGQGTLVTVSSASTKGPSVFPLAPSSKSTSGGTAALGCLVKDYFPEPVTVSWNSGALTSGVHTFPAVLQSSGLYSLSSVVTVPSSSLGTQTYICNVNHKPSNTKVDKKVEPKSCDKTHTCPPCPAPELLGGPSVFLFPPKPKDTLMISRTPEVTCVVVDVSHEDPEVKFNWYVDGVEVHNAKTKPREEQYNSTYRVVSVLTVLHQDWLNGKEYKCKVSNKALPAPIEKTISKAKGQPREPQVYTLPPSREEMTKNQVSLTCLVKGFYPSDIAVEWESNGQPENNYKTTPPVLDSDGSFLYSKLTVDKSRWQQGNVFSCSVMHEALHNHYTQKSLSLSPGK light: not shown | 13 pM | 83% |
| Conjugate 37 (D04-F404-LP33) (antibody, human IgG1, kappa, pAMF at F404 (EU), linked to LP33) heavy: MEVQLVESGGGLVQPGGSLRLSCAASGFNISDYDIHWVRQAPGKGLEWVGGIDPADGSTDYADSVKGRFTISADTSKNTAYLQMNSLRAEDTAVYYCARDYGVYDYWGQGTLVTVSSASTKGPSVFPLAPSSKSTSGGTAALGCLVKDYFPEPVTVSWNSGALTSGVHTFPAVLQSSGLYSLSSVVTVPSSSLGTQTYICNVNHKPSNTKVDKKVEPKSCDKTHTCPPCPAPELLGGPSVFLFPPKPKDTLMISRTPEVTCVVVDVSHEDPEVKFNWYVDGVEVHNAKTKPREEQYNSTYRVVSVLTVLHQDWLNGKEYKCKVSNKALPAPIEKTISKAKGQPREPQVYTLPPSREEMTKNQVSLTCLVKGFYPSDIAVEWESNGQPENNYKTTPPVLDSDGSFLYSKLTVDKSRWQQGNVFSCSVMHEALHNHYTQKSLSLSPGK light: not shown | 10 pM | 89% |
| Conjugate 41 (D04-F404-LP24) (antibody, human IgG1, kappa, pAMF at F404 (EU), linked to LP24) heavy: MEVQLVESGGGLVQPGGSLRLSCAASGFNISDYDIHWVRQAPGKGLEWVGGIDPADGSTDYADSVKGRFTISADTSKNTAYLQMNSLRAEDTAVYYCARDYGVYDYWGQGTLVTVSSASTKGPSVFPLAPSSKSTSGGTAALGCLVKDYFPEPVTVSWNSGALTSGVHTFPAVLQSSGLYSLSSVVTVPSSSLGTQTYICNVNHKPSNTKVDKKVEPKSCDKTHTCPPCPAPELLGGPSVFLFPPKPKDTLMISRTPEVTCVVVDVSHEDPEVKFNWYVDGVEVHNAKTKPREEQYNSTYRVVSVLTVLHQDWLNGKEYKCKVSNKALPAPIEKTISKAKGQPREPQVYTLPPSREEMTKNQVSLTCLVKGFYPSDIAVEWESNGQPENNYKTTPPVLDSDGSFLYSKLTVDKSRWQQGNVFSCSVMHEALHNHYTQKSLSLSPGK light: not shown | > 10000 pM | < 10% |
| Conjugate 44 (D04-F404-LP27) (antibody, human IgG1, kappa, pAMF at F404 (EU), linked to LP27) heavy: MEVQLVESGGGLVQPGGSLRLSCAASGFNISDYDIHWVRQAPGKGLEWVGGIDPADGSTDYADSVKGRFTISADTSKNTAYLQMNSLRAEDTAVYYCARDYGVYDYWGQGTLVTVSSASTKGPSVFPLAPSSKSTSGGTAALGCLVKDYFPEPVTVSWNSGALTSGVHTFPAVLQSSGLYSLSSVVTVPSSSLGTQTYICNVNHKPSNTKVDKKVEPKSCDKTHTCPPCPAPELLGGPSVFLFPPKPKDTLMISRTPEVTCVVVDVSHEDPEVKFNWYVDGVEVHNAKTKPREEQYNSTYRVVSVLTVLHQDWLNGKEYKCKVSNKALPAPIEKTISKAKGQPREPQVYTLPPSREEMTKNQVSLTCLVKGFYPSDIAVEWESNGQPENNYKTTPPVLDSDGSFLYSKLTVDKSRWQQGNVFSCSVMHEALHNHYTQKSLSLSPGK light: not shown | 17 pM | 80% |
| Conjugate 42 (D04-F404-LP25) (antibody, human IgG1, kappa, pAMF at F404 (EU), linked to LP25) heavy: MEVQLVESGGGLVQPGGSLRLSCAASGFNISDYDIHWVRQAPGKGLEWVGGIDPADGSTDYADSVKGRFTISADTSKNTAYLQMNSLRAEDTAVYYCARDYGVYDYWGQGTLVTVSSASTKGPSVFPLAPSSKSTSGGTAALGCLVKDYFPEPVTVSWNSGALTSGVHTFPAVLQSSGLYSLSSVVTVPSSSLGTQTYICNVNHKPSNTKVDKKVEPKSCDKTHTCPPCPAPELLGGPSVFLFPPKPKDTLMISRTPEVTCVVVDVSHEDPEVKFNWYVDGVEVHNAKTKPREEQYNSTYRVVSVLTVLHQDWLNGKEYKCKVSNKALPAPIEKTISKAKGQPREPQVYTLPPSREEMTKNQVSLTCLVKGFYPSDIAVEWESNGQPENNYKTTPPVLDSDGSFLYSKLTVDKSRWQQGNVFSCSVMHEALHNHYTQKSLSLSPGK light: not shown | 75 pM | 58% |
| Conjugate 45 (D04-F404-LP28) (antibody, human IgG1, kappa, pAMF at F404 (EU), linked to LP28) heavy: MEVQLVESGGGLVQPGGSLRLSCAASGFNISDYDIHWVRQAPGKGLEWVGGIDPADGSTDYADSVKGRFTISADTSKNTAYLQMNSLRAEDTAVYYCARDYGVYDYWGQGTLVTVSSASTKGPSVFPLAPSSKSTSGGTAALGCLVKDYFPEPVTVSWNSGALTSGVHTFPAVLQSSGLYSLSSVVTVPSSSLGTQTYICNVNHKPSNTKVDKKVEPKSCDKTHTCPPCPAPELLGGPSVFLFPPKPKDTLMISRTPEVTCVVVDVSHEDPEVKFNWYVDGVEVHNAKTKPREEQYNSTYRVVSVLTVLHQDWLNGKEYKCKVSNKALPAPIEKTISKAKGQPREPQVYTLPPSREEMTKNQVSLTCLVKGFYPSDIAVEWESNGQPENNYKTTPPVLDSDGSFLYSKLTVDKSRWQQGNVFSCSVMHEALHNHYTQKSLSLSPGK light: not shown | > 10000 pM | < 10% |
| Conjugate 43 (D04-F404-LP26) (antibody, human IgG1, kappa, pAMF at F404 (EU), linked to LP26) heavy: MEVQLVESGGGLVQPGGSLRLSCAASGFNISDYDIHWVRQAPGKGLEWVGGIDPADGSTDYADSVKGRFTISADTSKNTAYLQMNSLRAEDTAVYYCARDYGVYDYWGQGTLVTVSSASTKGPSVFPLAPSSKSTSGGTAALGCLVKDYFPEPVTVSWNSGALTSGVHTFPAVLQSSGLYSLSSVVTVPSSSLGTQTYICNVNHKPSNTKVDKKVEPKSCDKTHTCPPCPAPELLGGPSVFLFPPKPKDTLMISRTPEVTCVVVDVSHEDPEVKFNWYVDGVEVHNAKTKPREEQYNSTYRVVSVLTVLHQDWLNGKEYKCKVSNKALPAPIEKTISKAKGQPREPQVYTLPPSREEMTKNQVSLTCLVKGFYPSDIAVEWESNGQPENNYKTTPPVLDSDGSFLYSKLTVDKSRWQQGNVFSCSVMHEALHNHYTQKSLSLSPGK light: not shown | > 10000 pM | < 10% |

Target: T1, receptor tyrosine kinase orphan …
Assay: cell-based or functional assay
Remark: another data set of the same source

| Binder | cell killing EC50, NTERA-2 cells | cell killing Span, NTERA-2 cells |
| --- | --- | --- |
| Conjugate 5 (D04-F404-LP8) (antibody, human IgG1, kappa, pAMF at F404 (EU), linked to LP8) heavy: MEVQLVESGGGLVQPGGSLRLSCAASGFNISDYDIHWVRQAPGKGLEWVGGIDPADGSTDYADSVKGRFTISADTSKNTAYLQMNSLRAEDTAVYYCARDYGVYDYWGQGTLVTVSSASTKGPSVFPLAPSSKSTSGGTAALGCLVKDYFPEPVTVSWNSGALTSGVHTFPAVLQSSGLYSLSSVVTVPSSSLGTQTYICNVNHKPSNTKVDKKVEPKSCDKTHTCPPCPAPELLGGPSVFLFPPKPKDTLMISRTPEVTCVVVDVSHEDPEVKFNWYVDGVEVHNAKTKPREEQYNSTYRVVSVLTVLHQDWLNGKEYKCKVSNKALPAPIEKTISKAKGQPREPQVYTLPPSREEMTKNQVSLTCLVKGFYPSDIAVEWESNGQPENNYKTTPPVLDSDGSFLYSKLTVDKSRWQQGNVFSCSVMHEALHNHYTQKSLSLSPGK light: not shown | 21 pM | 85% |
